EC50, IC50 and Kd data for three molecules are collected here from patent publication US20210332138A1 (published 2021).

Broadly, the EC50 is the concentration at which the effect is half-maximal. A low value points to higher potency in that assay. Broadly, the IC50 is the point on the concentration scale where inhibition reaches its midpoint. The low end stands for greater potency, the high end for weaker potency. Broadly, the Kd is the free concentration of one partner at which half of the binding sites on the other are occupied at equilibrium, for simple one-to-one binding. Low values mean higher affinity, high ones lower affinity.

Assay [1] has as its target T1, hPDL1-Fc fusion protein (human, UniProt Q9NZQ7 19-238). As to the kind of experiment: ELISA. For orientation: ELISA stands for enzyme-linked immunosorbent assay.
Assay [2] addresses T1, hPDL1-Fc fusion protein. Nature of the assay: RBA; PD1 coated.
Assay [3] deals with T1, hPDL1-Fc fusion protein. Nature of the assay: ELISA; FIG. 11C.
Assay [4] has as its target T1, hPDL1-Fc fusion protein. As to the kind of experiment: BIAcore.
The target in assay [5] is T1, hPDL1-Fc fusion protein. Nature of the assay: RBA; PDL1 coated.
Assay [6] concerns the target T1, hPDL1-Fc fusion protein. Nature of the assay: ELISA; FIG. 11B.
For assay [7], the target named is T1, hPDL1-Fc fusion protein. As to the kind of experiment: receptor blocking ELISA; hPD1-Fc coated.
The target in assay [8] is T1, hPDL1-Fc fusion protein. As to the kind of experiment: receptor blocking ELISA; hPDL1-Fc coated.
Assay [9] deals with T2, hPDL1 expressed on 293T cells (human, UniProt Q9NZQ7 19-290). As to the kind of experiment: FACS. (In general: Flow cytometry measures light scatter and fluorescence of single cells or particles in a stream.)
Assay [10] deals with T2, hPDL1 expressed on 293T cells. As to the kind of experiment: FACS. This is another data set of the same source.

Read-outs that look alike come from different tables or passages of the source.

T2 sequence (Q9NZQ7 19-290): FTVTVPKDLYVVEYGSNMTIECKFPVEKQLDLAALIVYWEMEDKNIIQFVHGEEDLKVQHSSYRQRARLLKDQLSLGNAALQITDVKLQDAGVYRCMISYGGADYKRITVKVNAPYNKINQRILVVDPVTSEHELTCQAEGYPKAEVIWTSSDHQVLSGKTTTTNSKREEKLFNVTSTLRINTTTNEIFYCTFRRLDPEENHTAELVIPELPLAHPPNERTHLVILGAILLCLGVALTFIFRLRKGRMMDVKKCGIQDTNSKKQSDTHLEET
T1 sequence (Q9NZQ7 19-238): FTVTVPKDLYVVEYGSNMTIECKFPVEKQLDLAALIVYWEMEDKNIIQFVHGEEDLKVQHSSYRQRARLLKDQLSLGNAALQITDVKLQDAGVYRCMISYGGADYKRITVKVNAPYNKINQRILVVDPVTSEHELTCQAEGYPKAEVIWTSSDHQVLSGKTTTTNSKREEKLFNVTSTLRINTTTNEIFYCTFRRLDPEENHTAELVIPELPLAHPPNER

B1: full-length antibody 4-1E8 (antibody, V domains shown)
VH: QIQLVQSGAEVKMPGASVTISCEASGYNFISYYIHWVRQAPGQGLEWMGFVVPSGGAAGYTQKFQGRLTVTRDTSTSTVYMDLNSLTSDDTAVYYCVREMSGGWFDFWGQGTLVTVSS
VL: DIVMTQSPSSLSASVGDRVTITCRASQGIRNDLGWYQQKPGKAPKLLIYAASTLQSGVPSRFSGSGSGTDFTLTISSLQAEDVAVYYCQQYYSTPLTFGPGTKVDIK
On to B1, for which the EC50 in assay [1] came to 0.0391 nM; in assay [3], 0.0247 nM; in assay [6] it was 0.0391 nM; in assay [9] it was 0.356 nM. Besides, the concentration for half-maximal inhibition (IC50) in [2] worked out at 1.26 nM; in assay [5], 1.53 nM; in [7], 1.53 nM; in assay [8] it was 1.26 nM. In assay [4], this molecule showed a Kd of 4.46 nM.

B2: full-length antibody 3-1E4 (antibody, V domains shown)
VH: QIQLVQSGAEVKKPGSSVKVSCKASGGTFSSYAISWVRQAPGQGLEWMGGIIPIFGTANYAQKFQGRVTITADKSTSTAYMELSSLRSEDTAVYYCAGGGAVADNSYWGQGTLVTVSS
VL: DIRMTQSPSSLSASVGDRVTITCRASQGIRNDLGWYQQKPGKAPKLLIYAASSLQSGVPSRFSGSGSGTDFTLTISSLQPEDFATYYCLQDYNYPRTFGQGTKVEIK
Turning to B2, the figures for the EC50 in [1], in assay [6] and in [9] were 0.9 nM, 0.9 nM and 3.15 nM, respectively. Further, the IC50 in assay [2] was found to be 92.7 nM; in [5] it was 16.6 nM; in [7], 16.6 nM; in assay [8], 92.7 nM.

B3: full-length antibody 3-1B11 (antibody, V domains shown)
VH: EVQLVESGGGLVQPGGSLRLSCAASGFTFSDYDMIWVRQAPGKGLEWVAVISYDGSNKYYADSVKGRFTISRDNSKNTLYLQMNSLRAEDTAVYYCAKEFFGAFDIWGQGTMVTVSS
VL: SSELTQDPAVSVALGQTVTITCQGDSLNYYYANWFQLKPGQAPVLVLFGKNNRPSGIPDRFSGSYSGSTASLTITGAQAEDDADYYCNSRDSGGNPWVFGGGTKLTVL
Regarding B3, the EC50 in assay [10] stood at 0.132 nM; in assay [1], 0.018 nM; in assay [3] it was 0.018 nM; in assay [9] it was 0.132 nM. Besides, the figures for the IC50 in [2] and in assay [5] were 1.39 nM and 0.795 nM, respectively. For the same molecule, the Kd in assay [4] amounted to 2.32 nM.
